We go through 13 molecules from article PMC5773591, “Structural basis of trans-synaptic interactions between PTPδ and SALMs for inducing synapse formation” (Nature Communications, 2018).

B1: mouse SALM2 LRR–Ig-His6 (residues 32–390) (domain or fragment, UniProt Q2WF71 32-390, looked up)
chain: QPCPGRCICQNVAPTLTMLCAKTGLLFVPPAIDRRVVELRLTDNFIAAVRRRDFANMTSLVHLTLSRNTIGQVAAGAFADLRALRALHLDSNRLAEVRGDQLRGLGNLRHLILGNNQIRKVESAAFDAFLSTVEDLDLSYNNLEALPWEAVGQMVNLNTLTLDHNLIDHIAEGTFVQLHKLVRLDMTSNRLHKLPPDGLFLRSQGGGPKPPTPLTVSFGGNPLHCNCELLWLRRLTREDDLETCATPEHLTDRYFWSIPEEEFLCEPPLITRQAGGRALVVEGQAVSLRCRAVGDPEPVVHWVAPDGRLLGNSSRTRVRGDGTLDVTITTLRDSGTFTCIASNAAGEATAPVEVCVVPL
notes: mouse SALM2 (synaptic adhesion-like molecule 2, Lrfn family), LRR–Ig, residues 32–390; Homodimer by SEC-MALS; source: Expi293F, transiently expressed, secreted, purified (Ni-NTA, Superdex200 SEC); not shown: His6, C-terminal, kept
B2: mouse PTPδ Ig1–Fn1 (A9B+)-His6 Q209A (domain or fragment)
chain: ETPPRFTRTPVDQTGVSGGVASFICQATGDPRPKIVWNKKGKKVSNQRFEVIEFDDGSGSVLRIQPLRTPRDEAIYECVASNNVGEISVSTRLTVLREDQIPRGFPTIDMGPQLKVVERTRTATMLCAASGNPDPEITWFKDFLPVDTSNNNGRIKQLRSESIGGTPIRGALQIEQSEESDAGKYECVATNSAGTRYSAPANLYVRELREVRRVPPRFSIPPTNHEIMPGGSVNITCVAVGSPMPYVKWMLGAEDLTPEDDMPIGRNVLELNDVRQSANYTCVAMSTLGVIEAIAQITVKALPKPPGTPVVTESTATSITLTWDSGNPEPVSYYIIQHKPKNSEEPYKEIDGIATTRYSVAGLSPYSDYEFRVVAVNNIGRGPASEPVLTQ
B3: mouse PTPδ Ig1–Fn1 (A9B+)-His6 R233A (domain or fragment)
chain: B2 chain with A182Q, R206A
B4: human SALM5 LRR–Ig-His6 (residues 18–378) (domain or fragment, UniProt Q96NI6 18-378, looked up)
chain: QICPKRCVCQILSPNLATLCAKKGLLFVPPNIDRRTVELRLADNFVTNIKRKDFANMTSLVDLTLSRNTISFITPHAFADLRNLRALHLNSNRLTKITNDMFSGLSNLHHLILNNNQLTLISSTAFDDVFALEELDLSYNNLETIPWDAVEKMVSLHTLSLDHNMIDNIPKGTFSHLHKMTRLDVTSNKLQKLPPDPLFQRAQVLATSGIISPSTFALSFGGNPLHCNCELLWLRRLSREDDLETCASPPLLTGRYFWSIPEEEFLCEPPLITRHTHEMRVLEGQRATLRCKARGDPEPAIHWISPEGKLISNATRSLVYDNGTLDILITTVKDTGAFTCIASNPAGEATQIVDLHIIKLP
notes: human SALM5 (synaptic adhesion-like molecule 5, Lrfn family), LRR–Ig, residues 18–378; Homodimer by SEC-MALS; The synaptogenic assay used another construct (entire ECD fused to Fc); also called SALM5 WT; apo-SALM5; source: Expi293F, transiently expressed, secreted, purified (Ni-NTA, Superdex200 SEC); not shown: His6, C-terminal, kept

One data set addresses IL1RAPL1 (Mus musculus) (UniProt P59823). As to conditions: cited from earlier work.
Data set [1] has as its target human SALM5 LRR–Ig-His6 L288A (human) (UniProt Q96NI6). Briefly: SPR; Biacore T200, 25 °C, 10 mM Hepes-Na (pH 7.5), 200 mM NaCl, 0.05% Tween20; SALM5 proteins immobilised on a CM5 chip by amino coupling; PTPδ proteins injected as analytes (0.1–260 μM). (Surface plasmon resonance follows binding to a sensor surface in real time, without labels.)
For data set [2], the target named is human SALM5 LRR–Ig-His6 I358A (human) (UniProt Q96NI6). The description is as above.
In data set [3] the target is human SALM5 LRR–Ig-His6 Q134N (human) (UniProt Q96NI6). The description is as above.
Data set [4] deals with human SALM5 LRR–Ig-His6 R253A (human) (UniProt Q96NI6). The data set is described as above.
Data set [5] deals with human SALM5 LRR–Ig-His6 (residues 18–378) (human) (UniProt Q96NI6). Described as above.
Data set [6] concerns the target human SALM5 LRR–Ig-His6 L249A (human) (UniProt Q96NI6). The description is as above.
Data set [7] addresses human SALM5 LRR–Ig-His6 I321A (human) (UniProt Q96NI6). The description is as above.
Data set [8] concerns the molecule itself. Briefly: SEC-MALS; SALM LRR–Ig proteins at 0.5 g/L on ENrich SEC 650 in 20 mM Tris-HCl (pH 7.4), 250 mM NaCl; dimer of monomers. On the technique in general: In gel filtration, larger molecules generally elute earlier.
The target of data set [9] is B4. Description: SPR; Biacore T200, 25 °C, 10 mM Hepes-Na (pH 7.5), 200 mM NaCl, 0.05% Tween20; SALM5 proteins immobilised on a CM5 chip by amino coupling; PTPδ proteins injected as analytes (0.1–260 μM). To be noted: both partners purified.
Data set [10] concerns the target mouse PTPδ Ig1–Fn1 (A9B–) (mouse, UniProt Q64487 28-418, B– (meB insert 234ELRE237 absent)). The data set is described as above. As to conditions: both partners purified.

Substitutions are numbered along the chain they refer to. In names and notes the source's numbering stands.

IL1RAPL1 (Mus musculus), sequence (P59823 25-357): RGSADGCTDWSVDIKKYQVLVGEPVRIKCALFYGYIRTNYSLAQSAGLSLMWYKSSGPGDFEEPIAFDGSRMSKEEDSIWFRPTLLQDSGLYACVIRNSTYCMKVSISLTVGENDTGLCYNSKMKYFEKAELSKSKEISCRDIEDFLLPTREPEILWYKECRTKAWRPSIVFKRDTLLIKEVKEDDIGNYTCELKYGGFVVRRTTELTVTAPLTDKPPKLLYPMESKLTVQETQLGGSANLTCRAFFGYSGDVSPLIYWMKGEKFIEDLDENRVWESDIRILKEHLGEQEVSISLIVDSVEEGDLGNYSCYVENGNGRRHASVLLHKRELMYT

Take PTPδ (from UniProt Q64487): the Kd with IL1RAPL1 (Mus musculus) is 0.15 µM.

In the case of “mouse PTPδ Ig1–Fn1 (A9B+)-His6 (domain or fragment)”, the Kd in data set [1] is 129 µM; in data set [2], 31.4 µM; in data set [3], 9 µM; in [4], 95.2 µM; in data set [5] it was 14.4 µM; in data set [6], 169 µM. The molecule also had a Kd in [7] of 21.9 µM.

On to “mouse PTPδ Ig1–Fn1 (A9B+)-His6 L153A (domain or fragment)”, for which, in data set [5], the Kd was 25 µM.

For the molecule “mouse PTPδ Ig1–Fn1 (A9B+)-His6 M137A (domain or fragment)”, in [5], the Kd was 39.9 µM.

Molecule “mouse PTPδ Ig1–Fn1 (A9B+)-His6 M312A (domain or fragment)” returned a Kd in data set [5] of 37.3 µM.

Molecule “mouse PTPδ Ig1–Fn1 (A9B+)-His6 V143A (domain or fragment)” had a Kd in data set [5] of 150 µM.

In data set [5], “mouse PTPδ Ig1–Fn1 (A9B+)-His6 Y231A (domain or fragment)” gave a Kd of 70.9 µM.

In the case of “mouse PTPδ Ig1–Fn1 (A9B+)-His6 Y273A (domain or fragment)”, the Kd in data set [5] was 77.5 µM.

Turning to “mouse PTPδ Ig1–Fn1 (A–B+) (from UniProt Q64487 28-418) (domain or fragment)”, in [5], the Kd is 13.5 µM.

For the molecule B1, in [8], the “stoichiometry N” value is 2.

In the case of B2, binding in data set [9] was put at a Kd of 21.9 ± 0.23 µM.

For the molecule B3, in data set [9], the Kd came out at 24.8 ± 1.2 µM.

As to B4, the “stoichiometry N” value in data set [8] turned out to be 2. This molecule also showed a Kd in [10] of 106 ± 17 µM.

For orientation: Kd means the free concentration of one partner at which half of the binding sites on the other are occupied at equilibrium, for simple one-to-one binding. Usually stoichiometry N stands for a count of units in the complex or per binding partner.
